Measured values from article PMC6833008 (Molecules, 2019).
“And” between values parts separate entries of the source, which are not always exact repeats. Equal values may be shown once. Read-outs that look alike come from different tables or passages of the source. Ends that are not written are not given here.

Legend:
[1] = molecular target: T1, Recombinant human PD-1 protein (Homo sapiens, UniProt Q15116); experiment: SPR binding of peptides or PD-L1 to immobilized PD-1 (Biacore X100)
T1 construct: purchased Abcam (Cambridge, UK)
Protocol: Peptides of lyophilized powder were dissolved in sterile milli-Q H2O to a stock concentration of 1 mM for use in surface plasmon resonance (SPR) analysis. […] All synthetic peptides and proteins were equally packaged to avoid repeated freeze–thaw cycles.
The HBS-EP buffer (10×) was diluted 10-fold with sterile deionized water, filtered through a 0.22-μm membrane filter, and degassed immediately before the experiment as running buffer with a flow rate of 30 μL/min for the instrument system. The purified active PD-1 was diluted by 10 mM sodium acetate solution at pH 4.5, resulting in a protein concentration of 50 μg/mL. Coupling conditions were determined by protein isoelectric points and previous reports. The diluted protein was immobilized on the surface of a CM5 sensor chip via the primary amine group, employing a standard Amine Coupling Kit, and the target immobilization level was 5000 response units (RUs). The flow cell 1 […] any modification was used as a reference to correct the system error. The RU values were collected, and all the binding affinity data was calculated by kinetic models (1:1 interaction) within Biacore X100 Evaluation Software.
Each concentration was injected into the channel for 120 and 150 s for dissociation. Then, 10 mM glycine 3.0 or glycine 2.5 was utilized to regenerate the sensor chip surface. The equilibrium dissociation constant (KD) was calculated to evaluate the ability of peptides to interact with PD-1.

[2] = molecular target: T2, Recombinant human PD-1 protein (programmed cell death protein 1) (human, UniProt Q15116 25-170); experiment: SPR; Biacore X100, 25 °C; PD-1 amine-coupled to a CM5 chip (target 5000 RU); peptide as analyte in HBS-EP buffer pH 7.4 (2-64 μM WANG-003, 1-16 μM WANG-004, 1.5625-100 μM WANG-005), 30 μL/min, 120 s injection, 150 s dissociation; regeneration 10 mM glycine 3.0 or 2.5; 1:1 kinetic model; three single runs; conditions: both partners purified
T2 construct: programmed cell death protein 1 (PD-1), human, recombinant, bought from Abcam; the results speak of the immobilised ectodomain; also called hPD-1; CD279; source: bought: Abcam
T2 sequence (Q15116 25-170): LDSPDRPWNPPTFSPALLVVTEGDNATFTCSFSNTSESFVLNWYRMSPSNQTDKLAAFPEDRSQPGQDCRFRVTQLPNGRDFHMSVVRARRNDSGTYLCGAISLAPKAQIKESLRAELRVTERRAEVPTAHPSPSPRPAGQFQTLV

[3] = molecular target: T3, Recombinant human PD-1 protein (programmed cell death protein 1) (human, UniProt Q15116 25-170); experiment: SPR; Biacore X100, 25 °C; PD-1 immobilised on a CM5 chip by amine coupling (target 5000 RU); peptides as analytes in HBS-EP (2–64 μM WANG-003, 1–16 μM WANG-004, 1.5625–100 μM WANG-005, 62.5–1000 μM WANG006, 3.125–100 μM WANG007), 120 s injection and 150 s dissociation; 30 μL/min; 1:1 kinetic model; conditions: both partners purified
T3 construct: Programmed cell death protein 1 (PD-1), human, recombinant, bought from Abcam; the results call the immobilised protein an ectodomain; No catalogue number, limits or tags are printed; The UniProt ID Q15116 is printed for the docking model, not for the bought protein; also called CD279; purified active PD-1; source: bought: Abcam
T3 sequence (Q15116 25-170): as above

T1 sequence (Q15116 25-170 limits assumed): as the sequence (Q15116 25-170) above

binding affinity to PD-1 (in words) [1]	Molecule	kon [2]	also measured
moderate affinity	FRWWR-NH2 (C-terminus assumed) [WANG-004, FRWWR-NH2]		binding affinity to PD-1 (in words) ([1]; listed as FRWWR-NH2): moderate binding affinity
moderate affinity	KRWWR-NH2 (C-terminus assumed) [WANG-003, KRWWR-NH2]		
moderate affinity	RRWQWR-NH2 [WANG-005, RRWQWR-NH2]		
did not show binding affinities	YVAE-NH2 [WANG-007]		
did not show binding affinities	YVAM-NH2 [WANG-006]		
	KRWWR-NH2 (in-house synthetic peptide; source: synthetic peptide) [WANG-003 (KRWWR-NH2)]	1230 M⁻¹ s⁻¹ and 967 M⁻¹ s⁻¹ and 1090 M⁻¹ s⁻¹	Kd [2]: 2100 nM and 4610 nM and 3350 nM; koff [2]: 0.00258 s⁻¹ and 0.00446 s⁻¹ and 0.00365 s⁻¹
	FRWWR-NH2 (in-house synthetic peptide; source: synthetic peptide) [WANG-004 (FRWWR-NH2)]	2770 M⁻¹ s⁻¹ and 2120 M⁻¹ s⁻¹ and 2760 M⁻¹ s⁻¹	Kd [2]: 1380 nM and 2070 nM and 1450 nM; koff [2]: 0.00383 s⁻¹ and 0.00438 s⁻¹ and 0.00401 s⁻¹
	RRWQWR-NH2 [WANG-005 (RRWQWR-NH2)]	658 M⁻¹ s⁻¹ and 436 M⁻¹ s⁻¹ and 494 M⁻¹ s⁻¹	
	KRWWR-NH2 (in-house synthetic peptide; also called KRWWR-NH2; KRWWR; source: synthetic peptide (solid phase, HPLC purified)) [WANG-003]		Kd [3]: 3350 ± 1030 nM
	FRWWR-NH2 (in-house synthetic peptide; also called FRWWR-NH2; FRWWR; source: synthetic peptide (solid phase, HPLC purified)) [WANG-004]		Kd [3]: 1630 ± 309 nM
